Test results from the DeepSol protein solubility set.

assay: soluble on expression in E. coli; label from the status in PepcDB or PDB records

Row | Sequence | soluble on expression in E. coli
1 | MVTQTNPVPVTYPTDAYIPTYLPDDKVSNLADLKKLIEMDSRLDLYLTRRRLDTSINLPTNTKTKDHPPNKEMLRIYVYNTTESSPRSDSGTPADSGKTTWTLRIEGKLLHESANGKHPFSEFLEGVAVDFKRLKPLGMGKKRKRDSSLSLPLNLQQPEYNDQDSTMGDNDNGEDEDSAEAESREEIVDALEWNYDENNVVEFDGIDIKRQGKDNLRCSITIQLRGVDGGKVQYSPNLATLIGMQTGSVNDAVYSIYKYILINNLFVTEQTEAQDGSNDAEDSSNENNNKNGAGDDDGVEGSTPKDKPELGEVKLDSLLQKVLDTNAAHLPLMNVVQTVNKLVSPLPPIILDYTIDLSKDTTYGATTLDVDVSHILHQPQPQPNLQKEEETDAEDTAKLREITKLALQLNSSAQKYQFFHELSLHPRETLTHYLWSSKQNELVLQGDQYFNEDAARTSDIYSNNNNDRSLMGNISLLYSQGRL | soluble
2 | MVVEMLGKLKEKLQSFIRRVEENVEKEEDEAKKKGLLDKILMIEIKEKDIEEALEDLELELLEADVALEVVDELKDRIKRNLVGKKVRIGTNKEKIIEEAVRKAVLEILTPEKKMDLLEEIKKAEKPYVILFVGFNGSGKTTTIAKLAHWLKKNGFSVVIAASDTFRAGAIEQLEEHAKKVGVKVIKHKYGADPAAVAYDAIQHAKARGIDVVLIDTAGRSETNRNLMDEMKKIARVTKPNLVIFVGDSLAGNAIVEQARQFNQAVKIDGVILTKLDADARGGAALSISHVINAPILFVGIGQGYEDLIPFDERWFVEKILGEESA | soluble
3 | MVVIANAHNELIHDAVLDYYGKRLATCSSDKTIKIFEVEGETHKLIDTLTGHEGPVWRVDWAHPKFGTILASCSYDGKVLIWKEENGRWSQIAVHAVHSASVNSVQWAPHEYGPLLLVASSDGKVSVVEFKENGTTSPIIIDAHAIGVNSASWAPATIEEDGEHNGTKESRKFVTGGADNLVKIWKYNSDAQTYVLESTLEGHSDWVRDVAWSPTVLLRSYLASVSQDRTCIIWTQDNEQGPWKKTLLKEEKFPDVLWRASWSLSGNVLALSGGDNKVTLWKENLEGKWEPAGEVHQGGGGSGGGGATSKEFDGPCQNEIDLLFSECNDEIDNAKLIMKERRFTASYTFAKFSTGSMLLTKDIVGKSGVSIKRLPTELQRKFLFDDVYLDKEIEKVTIEARKSNPYPQISESSLLFKDALDYMEKTSSDYNLWKLSSILFDPVSYPYKTDNDQVKMALLKKERHCRLTSWIVSQIGPEIEEKIRNSSNEIEQIFLYLLLNDVVRASKLAIESKNGHLSVLISYLGSNDPRIRDLAELQLQKWSTGGCSIDKNISKIYKLLSGSPFEGLFSLKELESEFSWLCLLNLTLCYGQIDEYSLESLVQSHLDKFSLPYDDPIGVIFQLYAANENTEKLYKEVRQRTNALDVQFCWYLIQTLRFNGTRVFSKETSDEATFAFAAQLEFAQLHGHSLFVSCFLNDDKAAEDTIKRLVMREITLLRASTNDHILNRLKIPSQLIFNAQALKDRYEGNYLSE | soluble
4 | MVVMSKVLLNIGCADVDKPGYINVDARKTKVTHLVSNAWDLDCFEENSVHEIYSRHMLEHLNPEYAKLALQKWFYILEPEGKLVVIVPDIEFHARQLLGVSRSSFGDQMEHAFAGFWGWREKERGGSDFDAHQWGYTVATLENEIGAVGFERIERVVEGVDSEPWHLQMTARKPMTSLCCPMDFRGPFPLEHHHHHH | soluble
5 | MVVPGKNSTISPDYFTASQTSPLDMMKFPSPGSSKRYDNGGGIGLGIVAALEKSSIGINPVCHTGAGSKGFDLARYSKRFQFAAGIDLSDSEEYTCVTTRDGLTKVYYKEEEFEFGHNLLNGDQRWRKPIEIAEESPAKERRVLRDCPDFLTSCCLCKKKLQGKDIYMYKGDEGFCSKECRSLKIMEDSLKEQHKLTSVEVLTGEEIASPGIFLI | soluble
6 | MVVSIITPLYKVEDFIARCADSLFRQSYTEIEYIFVDDCSSDRSVEVLLQVAERYPQLQQQIRILHHESNRGVAAARETGLAAATGEYVYWVDADDWIEPDAIEKMVVRSEQGQKDIIACGWYLCFRQNERRMPMPCYADAETALRGMLSGTMRWNLWLYMIKRDLYLMNDIHFMEGENVGEDMLVLIKLFSHAKSIGFVKDAFYHYVKQNENSLTRLSPEQQMKRQMRNLQAATDYLVTHFIGKYEKEINFFKLNAKMPLLISNDKNSYRTWTACFPEANKYIMANKRQTLRMRLVQLMAAKRQFWLVELYYQLVFKFVYGILYK | not soluble
7 | MVVSSKMDIFNELESQVRSYSRSFPTIFTKSKGYKLWDVDGKEYIDFFSGAGALNYGHNDDKMKQVLIDYLLEDGIIHSLDMGTSAKVNFLKHFNKIILEPRDLNYKIMFPGPTGTNSVESALKIARKVTGRTNIISFSNAFHGMSLGSLSITSNHFKRKGAGVPLNNSIIMPYENYLDSLNSLSYLEKVLGDSGSGVALPAAIILETVQGEGGLNTASSQWLKGIDRLCKKYNILLIVDDIQAGCGRTGTFFSFEPASIKPDIICLSKSISGIGLPMAITLIKPEYDKWEPGEHNGTFRGNNLAFLAATEALSYWKDIEFINALKWKSEKITSFLNEICLKYPQLQGEVRGRGFMQGIACNTFGIAKKICSVAFENGLIIETSGPNDEVIKLLPSLTIDLEGLSKGLEMLEDSISTILKEVTH | not soluble
8 | MVWLANPERYGQMQYRYCGKSGLRLPALSLGLWHNFGHVNALESQRAILRKAFDLGITHFDLANNYGPPPGSAEENFGRLLREDFAAYRDELIISTKAGYDMWPGPYGSGGSRKYLLASLDQSLKRMGLEYVDIFYSHRVDENTPMEETASALAHAVQSGKALYVGISSYSPERTQKMVELLREWKIPLLIHQPSYNLLNRWVDKSGLLDTLQNNGVGCIAFTPLAQGLLTGKYLNGIPQDSRMHREGNKVRGLTPKMLTEANLNSLRLLNEMAQQRGQSMAQMALSWLLKDDRVTSVLIGASRAEQLEENVQALNNLTFSTKELAQIDQHIADGELNLWQASSDK | soluble
9 | MVYKNILVGLDGSSQADNAFKVACGLANALSADLHPIWIVNRDRGMDSSFGVNEDFYRDQYHQVQDKLVSYVEDAKKAGLKVTGEALVGNIKLVLANEYPKEHGIDLIVLGNTGLNTVEKLVVGSHTSYVIRNSACDVLVVK | not soluble
10 | MVYSVPMMCAQDLRRSAMLDVVVAGGGYVGLSAAVAIKQAAPHLNVQVIEAAPDDVWKKDVRASAVIAAATRMLDVFGIWNEIEPEAQPIHKMVVTDSKTADPVRPVFLTFDGAVEEGRPFAHMVPNVAMVSALRGLCERIGIKIRHGISVSGFTAGPQSTAITLSDGTSLEARLLIACDGVRSALRDMAGIKTVHWAYDQSGIVTTVEHERPHEGCAEEHFLPSGPFAVLPLKGNRSSLVWTERTADAVRLVASDDLVFEEELERRFGHKLGPVRPVGPRRAFPLGLTLARSFVAPRFALAGDAAHGIHPISGQGLNLGFKDVAALAETVVEADRLGLDIGSLNVLERYQSWRRFDTLRMGVTTDVLNRLFSNDVGPIRVMRDFGLGVVDRLPGLKSYFIGQAAGTTDANAPRLLAGEALLEHHHHHH | not soluble
11 | MWKTASDKGLGHLLRDVWSLLNEEERELLDKEIQPFPCKKASTVFSEGDIPNNLFYLYEGKIKILREGVYGRFHISRIVKPGQFFGMRPYFAEETCSSTAIAVENSKVLAIPVEAIEALLKGNTSFCRYFLKALAKELGYAERRTVTLTQKHVRGRLAETLLILKENFGFENDGATLSIYLSREELATLSNMTVSNAIRTLSTFVSERMLALDGKRIKIIDCDRLQKTARSG | soluble
12 | MWLGYMNKSIPTTRKTRTFKAMSIEFSAPAKMKIEVWSDIMCPFCYIGKKRLDDALSTFDQAGRIEVEYKSFELMPGLETHPLRSDVEYLADAKGMSLEQARQMNGQVQAMAQATGLEMNPDETIAANTINAHRLTHFAKAHGKQQEVAQELFKAHFVDGKNVDDLDVLVSIAAEVGLDASAAREALESDVYTNEVQQDVHEARQLGVQGVPFFVFDRKYAINGAQQEEVFTGTVEKAFEEWAAENPVSPFEVIDGQSCSVDGTCN | not soluble
13 | MWRSSLMCLPDTSWGAMETTFVLDALEQALWARRPSGTVHHSDKGSQYVSLAYTQRLKEAGLLASTGSTGDSYDNAMAESINGLYKAEVIHRKSWKNRAEVELATLTWVDWYNNRRLLERLGHTPPAEAEKAYYASIGNDDLAA | not soluble
14 | MWTDAGGQVHEAASGDVRIASLVPSITELLFDLGLADQLVARTGFCIHPEPAVRAVAKVGGTKDVKLDRLRALAPTHVVVNIDENRRETVDEIRTFVPHVIVTHPCAPEDNLALYRLLGGIFGRRPQAEALVGQLRGELDAIQAQTWPARRVLYAIWQDPWMTVSRATYISRMLALVNWATWPDDADTSDTPAACVDGDCSRPNAPGERYPTFRWSDALVRELDAVLLSTEPYRFTEDHADALERQIGKPVLLVDGEMLSWYGSRAVAGARYLRSLAQGFLEHHHHHH | soluble
15 | MWTNTFQEGLKIVGENISLSLPDGRQELFRLTDGAISSDATTGTLSKDQAGWRYDYRDGTSSLFDVQGRLIQRKVRGQVITITYPNLSTTKAKDGFGNTLTVSWNATKQPYLVDYNGSLKVEYLYDGGARLVSKKTTSQGLNRTRKYLYADSGNAGLMVGIIDEQGTRYATWTYDNQGRAISSEHANGAEKVSLAYNDDGSTTVTNEYGKQATYRFQVIQGIKRIVAIEGQPSPNCPSSNSTFTYDDQGLLTSKRDNNGNLTTYQYNARGLETSRTEAAGTAQARTITTDWHPTLFLPVQVSEPGRITRYQYDAEGRKTGETVTTR | not soluble
16 | MWWREKLFDGLRALELTKKTLKNKKERESMNQEELDKKLKKQEILVKDEKVWSYTYEDHISSIVKEAEKKGSFDHLPGKGKPLNLDKDLSYNPEKQLYRTLKNNHVLPRWIELSKEIDDLKEKLKENTNTAETADLIRTINKKVLEHNLLCPPSAQKTRVKTDFLEHHHHHH | soluble
17 | MYCHAKLKNISQHTVISAHLFLPDYSPMNRDSFYPAIACFPLLLMLAGCAPMHETRQALSQQTPAAQVDTALPTALKMVGQTANGGWSITIINSLPLEHHHHHH | not soluble
18 | MYDFKKINNLRGIERETLRVTDCGNLATSNHPDGLGHKLTNNSITVDFSENLLELITKPHDSIDKAIGELYQLSAFTLDNMHSDEIILNTSMPLSANDNDIQEADFGSSNSGRMKRVYRKGLSARYGKIMQIISGIHYNFSFDKDLISNIATNKQVSISDIYFDVLNNYFEFMWLLPYLFGASPICAKTSVKNKPDYLSVLDDKFYVGEYATSLRMSDLGYTSPAQKDLAISYDNVKAYVKDLIQATDDTFADYKRIGLYNSQGQRIQLNDGILQIENEYYSAIRPKQIAKRGERPACALYNRGVEYVEVRVLDVDPFEPVGISKDTALFVEVMLMTCLDKDAKKYHKDIIKQAKQNLTAVAIQGRNPQLKLKKLDDDSEILLKDYALELFDEIEAVAKKMPKEYLDAVEIQKRKVLDISQTPSAKIIELARQHGYKKFILDISRRVSQQFRSYELPAAIVAKLKDQAGQSVAAEKELVANDKISLDEYINRYYKSSKGCC | not soluble
19 | MYDVVVVGAGPAGSRYARQAASRGLDVVVFEQGEIGKPLACSGHVSTDIWEFTEDARDELFQNEISGARFHTGGPGSQDHPFYKDEVISNVIDRVGLDKHLAGLARDAGADVREAHSVVGVTEDRDGVTVEVRGDDGVETHRAKMVAGCDGPKSRVRRELDLPEPDELLHGVLGFSDEVDHGDFVDVHLTVPRFFAWRIPRGEAGVEYGLAVPPGDDARGRFEEFVDGYGVETDHRCSGLIPIGPPKRVTGRRSFLIGDAAAQTKPFTGGGIRYGMTAADHAAREIDPEDPATLGEYERAWRDDLRQEIRLGHAVRAGYSAPEPIQKAGMKAFEGEIGVHMDRPTTLFSREQLAALFSRSLEHHHHHH | soluble
